Assay results: patent US20040006009A1

Molecular target: MASP (MBL-associated serine proteases) purified from an MBL deficient individual
Test: cell-based or functional assay

recombinant human mannan binding lectin (MBL) (from UniProt P11226 21-248)
C4-activation compared to the reference N105-11A (EC50 = 100%); PE0407 5 mg/ml with 1 mM CaCl2, T = 2 months at +4° C.: 92% | C4-activation compared to the reference N105-11A (EC50 = 100%); PE0407 5 mg/ml with 1 mM CaCl2, T = 2 months at +37° C.: 94% | C4-activation compared to the reference N105-11A (EC50 = 100%); PE0407 5 mg/ml with 1 mM CaCl2, T = 2 months at -20° C.: 91% | C4-activation compared to the reference N105-11A (EC50 = 100%); control 5 mg/ml without calcium, T = 2 months at 37° C.: 19% | C4-activation, EC50% relative to a MBL standard; PE0305 10 mg/ml, T = 0 months (% relative to MBL standard): 94 | C4-activation, EC50% relative to a MBL standard; PE0305 10 mg/ml, T = 2½ months at +4° C. (% relative to MBL standard): 78 | C4-activation, EC50% relative to a MBL standard; PE0305 10 mg/ml, T = 2½ months at +37° C. (% relative to MBL standard): 36 | C4-activation, EC50% relative to a MBL standard; PE0305 10 mg/ml, T = 2½ months at -20° C. (% relative to MBL standard): 81 | C4-activation, EC50% relative to a MBL standard; PE0305 10 mg/ml, T = 5 months at +4° C. (% relative to MBL standard): 80.3 | C4-activation, EC50% relative to a MBL standard; PE0305 10 mg/ml, T = 5 months at +37° C. (% relative to MBL standard): 14.3 | C4-activation, EC50% relative to a MBL standard; PE0305 10 mg/ml, T = 5 months at -20° C. (% relative to MBL standard): 81.7 | C4 activation assay, EC50 relative to reference (100%); PE0238 1 mg/ml, 12 months at +4 degree (% of reference): 105 | C4 activation assay, EC50 relative to reference (100%); PE0238 1 mg/ml, 12 months at -20 degree (% of reference): 104
